This note sets out measurements from patent US10898561B2, “Peptides and combination of peptides for use in immunotherapy against pancreatic cancer and other cancers” (IMMATICS BIOTECHNOLOGIES GMBH, priority 2015, dated 2021).

The target in the experiment is HLA-A*02:01 (Homo sapiens, UniProt P04439, D140Y/D185E/D98H/E176V/E277Q/G131W/G231S/I119V/I121R/I166T/I218V/L300P/L318F/N151K/N90K/P208A/P217A/Q86G/Q94H/R138H/R169H/T345S). Put plainly: MHC binding assay: UV-ligand exchange with beta2m ELISA. As to conditions: MHC class I binding score, yield of UV-ligand exchange. The source says:
Candidate peptides for T cell based therapies according to the present invention were further tested for their MHC binding capacity (affinity). The individual peptide-MHC complexes were produced by UV-ligand exchange, where a UV-sensitive peptide is cleaved upon UV-irradiation, and exchanged with the peptide of interest as analyzed. Only peptide candidates that can effectively bind and stabilize the peptide-receptive MHC molecules prevent dissociation of the MHC complexes. To determine the yield of the exchange reaction, an ELISA was performed based on the detection of the light chain (β2m) of stabilized MHC complexes. The assay was performed as generally described in Rodenko et al. (Rodenko et al., 2006).
96 well MAXISorp plates (NUNC) were coated over night with 2 ug/ml streptavidin in PBS at room temperature, washed 4× and blocked for 1 h at 37° C. in 2% BSA containing blocking buffer. Refolded HLA-A*02:01/MLA-001 monomers served as standards, covering the range of 15-500 ng/ml. Peptide-MHC monomers of the UV-exchange reaction were diluted 100 fold in blocking buffer. Samples were incubated for 1 h at 37° C., washed four times, incubated with 2 ug/ml HRP conjugated anti-β2m for 1 h at 37° C., washed again and detected with TMB solution that is stopped with […]. Absorption was measured at 450 nm. Candidate peptides that show a high exchange yield (preferably higher than 50%, most preferred higher than 75%) are generally preferred for a generation and production of antibodies or fragments thereof, and/or T cell receptors or fragments thereof, as they show sufficient avidity to the MHC molecules and prevent dissociation of the MHC complexes.
Turning to “1 (FLAQQESEI; listed as Homo sapiens) [compound 1]”, the Peptide exchange result was “++ (20%-49% = ++)”.

Turning to “16 (APVNVTTEVKSV; listed as Homo sapiens) [compound 16]”, the Peptide exchange result is on record as “++ (20%-49% = ++)”.

With “59 (KLFNLSKEDDV; listed as Homo sapiens) [compound 59]”, the Peptide exchange entry was “++ (20%-49% = ++)”.

As to “54 (VLLSEIEVA; listed as Homo sapiens) [compound 54]”, the Peptide exchange result was “++ (20%-49% = ++)”. In the case of “48 (ALTQTGGPHV; listed as Homo sapiens) [compound 48]” it was “++ (20%-49% = ++)”. For “60 (YLEEDVYQL; listed as Homo sapiens) [compound 60]”, the Peptide exchange entry is given as “++ (20%-49% = ++)”. On to “10 (FLVDGSSAL; listed as Homo sapiens) [compound 10]”, for which the Peptide exchange result is recorded as “++ (20%-49% = ++)”. The value for “24 (GLLEELVTV; listed as Homo sapiens) [compound 24]” was “++ (20%-49% = ++)”; that for “15 (SLANNVTSV; listed as Homo sapiens) [compound 15]” was “++ (20%-49% = ++)”; that for “44 (VLLDKIKNLQV; listed as Homo sapiens) [compound 44]” was “++ (20%-49% = ++)”.

Take “67 (KMFFLIDKV; listed as Homo sapiens) [compound 67]”: the Peptide exchange entry is “+++ (50%-75% = +++)”. As for “56 (GLLDYATGAIGSV; listed as Homo sapiens) [compound 56]”, the Peptide exchange result was “+++ (50%-75% = +++)”. As to “41 (FLLDGSEGV; listed as Homo sapiens) [compound 41]”, the Peptide exchange result is reported as “+++ (50%-75% = +++)”. Take “18 (SLLDDELMSL; listed as Homo sapiens) [compound 18]”: the Peptide exchange entry is listed as “++ (20%-49% = ++)”. Regarding “31 (SLAAAAGKQEL; listed as Homo sapiens) [compound 31]”, the Peptide exchange entry is reported as “++ (20%-49% = ++)”. In the case of “22 (TLDGAAVNQV; listed as Homo sapiens) [compound 22]” it was “++ (20%-49% = ++)”; in that of “43 (RLDQRVPQI; listed as Homo sapiens) [compound 43]”, “++ (20%-49% = ++)”; in that of “46 (TFAPVNVTTEVKSV; listed as Homo sapiens) [compound 46]”, “++ (20%-49% = ++)”. In the case of “5 (LLVDDSFLHTV; listed as Homo sapiens) [compound 5]” it was “+++ (50%-75% = +++)”; in that of “38 (NLVEKTPALV; listed as Homo sapiens) [compound 38]”, “+++ (50%-75% = +++)”; in that of “57 (FLGKVVIDV; listed as Homo sapiens) [compound 57]”, “++++ (>=75% = ++++)”.

“25 (SLKEEVGEEAI; listed as Homo sapiens) [compound 25]”: the Peptide exchange entry was “++ (20%-49% = ++)”. The value for “14 (VLAKPGVISV; listed as Homo sapiens) [compound 14]” was “++ (20%-49% = ++)”; that for “9 (FLFDGSANLV; listed as Homo sapiens) [compound 9]” was “++ (20%-49% = ++)”.

For “12 (FVSEIVDTV; listed as Homo sapiens) [compound 12]”, the Peptide exchange entry was “+++ (50%-75% = +++)”. In the case of “55 (YLDAMMNEA; listed as Homo sapiens) [compound 55]” it was “++ (20%-49% = ++)”. As to “26 (SLKEEVGEEAIV; listed as Homo sapiens) [compound 26]”, the Peptide exchange entry is “++ (20%-49% = ++)”. As for “6 (VLISLKQAPLV; listed as Homo sapiens) [compound 6]”, the Peptide exchange result was “++ (20%-49% = ++)”. With “11 (FLYKIIDEL; listed as Homo sapiens) [compound 11]”, the Peptide exchange result is on record as “+++ (50%-75% = +++)”. With “40 (FILDSAETTTL; listed as Homo sapiens) [compound 40]”, the Peptide exchange result is on record as “++ (20%-49% = ++)”. The value for “17 (FLKSGDAAIV; listed as Homo sapiens) [compound 17]” was “++ (20%-49% = ++)”. The value for “47 (KMDASLGNLFA; listed as Homo sapiens) [compound 47]” was “++++ (>=75% = ++++)”; that for “29 (FLQEYLDAI; listed as Homo sapiens) [compound 29]” was “+++ (50%-75% = +++)”. In the case of “7 (AQQESEIAGI; listed as Homo sapiens) [compound 7]” it was “++ (20%-49% = ++)”. In the case of “52 (RMVEEIGVEL; listed as Homo sapiens) [compound 52]”, the Peptide exchange entry is reported as “++ (20%-49% = ++)”. As to “39 (TLLSNLEEA; listed as Homo sapiens) [compound 39]”, the Peptide exchange entry was “++ (20%-49% = ++)”. For “51 (ALMLQGVDL; listed as Homo sapiens) [compound 51]”, the Peptide exchange entry is “++ (20%-49% = ++)”. Turning to “33 (SLDSRLELA; listed as Homo sapiens) [compound 33]”, the Peptide exchange entry was “++ (20%-49% = ++)”. For “35 (VMDSGDGVTHTV; listed as Homo sapiens) [compound 35]”, the Peptide exchange result is recorded as “++ (20%-49% = ++)”. The value for “28 (YLQGQRLDNVV; listed as Homo sapiens) [compound 28]” was “++ (20%-49% = ++)”. The value for “27 (YLQGQRLDNV; listed as Homo sapiens) [compound 27]” was “++ (20%-49% = ++)”; that for “65 (YLYDSETKNA; listed as Homo sapiens) [compound 65]” was “++ (20%-49% = ++)”. In the case of “53 (SSFGGLGGGSV; listed as Homo sapiens) [compound 53]” it was “+ (<20% = +)”; in that of “42 (KLVDKSTEL; listed as Homo sapiens) [compound 42]”, “++ (20%-49% = ++)”.

Regarding “8 (IVDDLTINL; listed as Homo sapiens) [compound 8]”, the Peptide exchange result is recorded as “++ (20%-49% = ++)”. “66 (ALLSGLREA; listed as Homo sapiens) [compound 66]”: the Peptide exchange entry was “+++ (50%-75% = +++)”. In the case of “49 (NLKGTFATL; listed as Homo sapiens) [compound 49]” it was “+ (<20% = +)”; in that of “64 (FLVSNMLLAEA; listed as Homo sapiens) [compound 64]”, “+++ (50%-75% = +++)”.

In the case of “4 (SVDVSPPKV; listed as Homo sapiens) [compound 4]”, the Peptide exchange entry was “++ (20%-49% = ++)”. In the case of “2 (SLQEEHVAVA; listed as Homo sapiens) [compound 2]” it was “++ (20%-49% = ++)”; in that of “30 (VVDEGPTGV; listed as Homo sapiens) [compound 30]”, “++ (20%-49% = ++)”. The value for “13 (LLAGQTYHV; listed as Homo sapiens) [compound 13]” was “++ (20%-49% = ++)”. In the case of “32 (SLAAAAGKQELA; listed as Homo sapiens) [compound 32]” it was “+ (<20% = +)”; in that of “58 (GLAAFKAFL; listed as Homo sapiens) [compound 58]”, “+++ (50%-75% = +++)”.
